Experimental data: US20110190385A1 (UNIVERSITY OF CENTRAL FLORIDA RESEARCH FOUNDATION, published 2011)

Target: HIV-1 gp41 (Env of HIV-1 BaL) (HIV-1 BaL)
Experiment: cell-based or functional assay

B1: RC-101 (single lysine congener of retrocyclin) (peptide)
peptide: cyclo(RCICGRGICRCICGKGIC)
modifications: disulfide (positions not given here); also: three disulfide bridges, pairing not given here
- IC50 of inhibition of HIV-1 BaL entry in TZM-bl cells (luciferase): 2 µg/mL
